Measured values: the nanobody polyreactivity screen of Harvey et al. (2022)

Assay: yeast display, Sf9 membrane polyspecificity reagent, FACS + sequencing; frameworks hold sequencing errors
Procedure, shortened: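 Genes from sorted yeast were amplified by colony PCR, read by MiSeq 2 × 250 sequencing and filtered on CDR length. These cells carried a synthetic nanobody library in Saccharomyces cerevisiae BJ5465 and were sorted by FACS into low and high (top ~1%) gates on anti-HA and streptavidin fluorescence. Polyreactivity is labelled according to the gate of origin.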

Sequence | polyreactivity (PSR sort gate)
QVQLVESGGGLVQAGGSLRLSCAASGRIFAYNTMGWYREAPGKERELVAVSTSGGSTNYADSVKGRFTISRDNAKNTVYLQMNSLKPEDSAVYYCAKRPYGRSGGSRYDYWGQGTQVTVSS | high polyreactivity
QVQLVESGGGLVQAGGSLRLSCAASGLTFDAYAMGWYRHAPRKERELVAAISWSGGSTYYADSVKGRFTISRDNAKNTVYLQMNSLKPEDTAVYYSNARYAQFRFWGQGTQVTVSS | high polyreactivity
QVQLVESGGGLVQAGGSLRLSCAASGNIFRTYAMGWYRQAPGKERELVAAISRGGRTYYADSVKGRFTISRDNAKNSVYLQMNSLKPVDTAVYYCNVQPDRISRYDYWGQGTQVTVSS | high polyreactivity
QVQVVESGGGLVQAGGSLRLSCAASGRIFYTNAMGWYRQAPGKERELVAVISWGGDTTYYADSVKGRFTISRDKAKNTVYLQMNSLKPEDTAVYYCNADWGPTYEIYDSWGQGTQVTVSS | low polyreactivity
QVQLVESGGGLVQAGGSLRLSCAASGSIFSNYAMGWYRQAPGKERELVAAITLSSGGTYYADSVKGRFTISRDNAKNTVYLQMNSLKPEDTAVYYCAAQYKYFIHRYYYWGQGTQVTVSS | high polyreactivity
QVQLVESGGGLVQAGGSLRLSCAASGFTFGSYAMGWYRQAPGKDRELVARISSDGSTNYADSVKGRFTISRDYAKNTVYLQMNSLKPEDTAVYYCAVRHRYTRAYWGRDYWGQGTQVTVSS | low polyreactivity
QVQLVESGGGLVQAGGRLRLSCAASGFIFWTYAMGWYRQAPGKERELVARISWSGGSTYYADSVKGRFTISRDTAKNTVYLQMNSLKPEDTAVYYCARLATLYESIEYDYWGQGTQVTVSS | low polyreactivity
QVQLVESGGGLVQAGGSLRLICAASGRTFSTYAMGWYRQAPGKERELVAAISSGGGRTYYADSVKGRFTISRDNAKNTVYLQMNSLKPEDTAVYYCAADRYVRSRRSYEYWGQGTQVTVSS | low polyreactivity
QVQLVESGGALVQAGGSLRLSCAASGSTFPTNAMGWYRQAPGKERELVAAITSSTGSTYYADSVKGRFTISRDNAKNTVYLQMNSLKPEDTAVYSCAKSKQWQRYLRGNYWGQGTQVTVSS | low polyreactivity
QVQLVESGGGLVQAGGSLRLSCAASGFTYKYYVMGWYRQAPGKERELVASISKRGGSTRYADSVKGRFTISRDYAKNTVYLQMNSLKPEDNAVYYCAAAFVRRPPYVGYSRFDYWGQGTQVTVSS | high polyreactivity
QVQLVESGGGLVQAGGSLRLSCAACGSTFDVNARGWYRQAPGKERELVAAISWSDDDTYYADSVKGRFTISRDNAKNTDYLQKHSLKPEDTAVYYCAADGRYGWYYGVYNGEDYWGQGTQVTVSS | high polyreactivity
QVQLVESGGGLVQAGGSLRLSCAASGRTFYGYTMGWYRQAPGKERELVAAIRTSGGSTYADSVKGRFTISRDNAKNTVYLQMNSLKPEDTAVYYCAAPRVVYYGTAPAYRYDYWGQGTQVTVSS | high polyreactivity
QVQLVESGGGLVQAGGSLRLICAASGSIFNYYAMGWYRQAPGKERELVAGITTSGGSTYYADSVKGRFTISRDNAKNTVHLQMNSLKPEDTAVYYCAAYDYISSTYFLDDYWGQGTQVTVSS | low polyreactivity
QVQLVESGGGLVQAGGSLRLSCAASGYIFHRYAMGWYRQAPGKERELVAAISWRVTSTFYADSVKGRFTISRDNAKNTVYLQMNCLKPEDTAVYYCASVKWVGYKYWSSRKYDYWGQGTQVTVSW | high polyreactivity
QVQLVESGGGLVQAGGSLRLSCAASGSIFTYNAMGWYRPAPGKERELVAAINTSGSTNYADSVKGRFTISRDNAKNTVYLQMNSLKPEDTAVYYCAAGIVVTGYDYWGQGTQVTVSS | low polyreactivity
QVQLVESGGGLVQAGGSLRLSCAASGITFTYYAMGWYRQAPGKERELVAGISRGGSTYYADSVKGRFTISRDNAKNTVYLQMNSLKPEDTAVYYCAATSYRRTGYNYWGQGTQVTVSS | high polyreactivity

Sequence | polyreactivity (PSR sort gate)
QVQLVESGGGLVQAGGSLRLSCAASGFTFYLYVMGWYRQAPGTEREFVAAITGSGTSTYYADSVKGRFTISRDNAKNTVYLQMNSLKPEDTAVYYCNAKRDRYFYTVKYDYWGQGTQVTVSS | low polyreactivity
QVQLVESGGGLVQAGGSLRLSCAASGFIFKVNAMGWYRQAPGKERELFAAISRRGVTTYYADSVKGRFTISRDNAKNTVYLQMNSLKPEDTAVYYCNRARSYGDTDKLAILADDYWGQGTKVTVSS | high polyreactivity
QVQLVESGGGLVQAGGSLSLSCAASGRTFFKYAMGWYRQAPGKERELVASITGRGGSTYADSVKGRFTISRDNAKNTVYLQMNSLKPEDTAVYYCAKVYQRGAQYYYYKYDYWGQGTQVTVSS | high polyreactivity
QVQLVESGGGLVQAGGSLRLSCAASGSTFPWYTMGWYRQAPGKERELVAAISFSGGRTYYADSVKGRFTISRDNAKNTVYLQMNSLKPEDTAVYYCAATVGAASRYYYWGQGTQVTVSS | high polyreactivity
QVQLVESGGGLVQAGGSLRLSCAASGNIFRYYAMGWYRQSPGKERELVAAITRSGGSTYADSVKGRFTISRDNAKNTVYLQMNSLKPEDTAVYYCAAVGYRYFTIYDYWGQGTQVTVSS | low polyreactivity
QVQLVESGGGLVQAGGSLRLSCAPSGSIFSAYAMGWYRQAPGKERELVAAITRGTSTNYADSVKGRFTISRDNAKNTVYLQMNSLKPEDTAVYYCAAEYGWYYVNFYYWGQGTQVTVSS | low polyreactivity
QVQLVESGGGLVQAGGRLRLSCAASGLIFGANTMGWYSQAPGKERELVAAITSSGGSTYYADSVKGRFTISRDNAKNTVYLQMNSLKPEDTAVYFCNDRSWYPYDYWGQGTQVTVSS | low polyreactivity
QVQLVESGGGLVQAGGSLRLSCAASGRTFGSNAMGWFIQAPGKERELVAAISSSDSTNYADSVKGRFTISRDNAKNTVYLQMNSLKPEETAVYYCNAGHPVRSPGYDYWGQGTQVTVSS | low polyreactivity
QVQLVESGGGLVQAGGSLRLSCAASGITFGDYAMGWSRQAPGKERELVAGINWSGDGTYYADSVKGRFTISRDNAKNTVYLQMNSLKPEDTAVYYCAAETFYDYGGYDYWGQGTQVTVSS | low polyreactivity
QVQLVESGGGLVQAGGSLRLSCAASGRIFRWYAMGWYRQAPGKERELVAAISYSGGSTYYADSVKGRFTISRDNAKNTVYLQMNRLKPEDTAVYYCNAVLYTPVYDGFDSWGQGTQVTVSS | high polyreactivity
QVQLVESGGGLVQAGGSLRLSCAASGGTFKLYAMGWYRQAPGKERELVAAISRRGGSTYYADSVKGRFTISRDNAKNTVYLQMNSLKPEDTAVYYCAAPGPTQSTQRGGYWGQGTQVTVSS | high polyreactivity
QVQLQESGGGLVLAGGSLRLSCSASGNISVYGSMGWYRQAPGKEREFVATIDPGTNTNYADSVKDRFTISRDNAKNTVYLQMNSLKPEDTAVYYCAVEAGSDWLYRYWGQGTKVTVSS | low polyreactivity
QVQLVESGGGLVQAGGSLRLSCAASGSTFRFYAMGWYRQAPGKERELVAVISSAGSTNYADSVKGRFTISRDNAKNTVYLQMNSLKTEDTAVYYCAAYRRYSIYNYWGQGTQVTVSS | high polyreactivity
QVQLVESGGGLVQAGGSLRLSCAASGFIFGVYAMGWYRQAPGKERELVARITYGGGSTYYADSVKGRFTISRDNAKNTVYLQMNSLKPEDTAVYYCAAASWSYPYYYWGQGTQVTVSS | high polyreactivity
QVQLVESGGGLVQAGGSLRLSCAASGSTFRLNAMGWYRQAPGKERELVAAITSGGSTTYADSVKGRFTISRDNAKNTVYLQMNSLKPEDTAVYYCAAANWGTPPYDYWGQGTQVTVSS | low polyreactivity
QVQLVESGGGLVKAGGSLRLSCAASGLTFYFYAMGWYRQAPGKERELVAGIRKRGGGTYYADSVKGRFTISRDNAKNTVYLQMNSLKPEDTAVYYCAKEPGWGRRSTTAYDYWGQGTQVTVSS | low polyreactivity
